We go through one substance from publication PMC3392929.

This assay concerns the target Purified β-actin (Cytoskeleton) (UniProt P60709). As to the kind of experiment: SPR.

Bounds are passed on as bounds.

“GST-tagged Myo1c neck plus tail (domain or fragment)”: the Kd (in general, the constant that tells how readily two partners part at equilibrium) was below 2000 nM.
